Experimental data from PMC6426840.

Molecular target: recombinant human matrix metalloproteinase-2 (rh-proMMP2 activated with APMA) (human) (UniProt P08253)
UniProt P08253, sequence (P08253 30-660): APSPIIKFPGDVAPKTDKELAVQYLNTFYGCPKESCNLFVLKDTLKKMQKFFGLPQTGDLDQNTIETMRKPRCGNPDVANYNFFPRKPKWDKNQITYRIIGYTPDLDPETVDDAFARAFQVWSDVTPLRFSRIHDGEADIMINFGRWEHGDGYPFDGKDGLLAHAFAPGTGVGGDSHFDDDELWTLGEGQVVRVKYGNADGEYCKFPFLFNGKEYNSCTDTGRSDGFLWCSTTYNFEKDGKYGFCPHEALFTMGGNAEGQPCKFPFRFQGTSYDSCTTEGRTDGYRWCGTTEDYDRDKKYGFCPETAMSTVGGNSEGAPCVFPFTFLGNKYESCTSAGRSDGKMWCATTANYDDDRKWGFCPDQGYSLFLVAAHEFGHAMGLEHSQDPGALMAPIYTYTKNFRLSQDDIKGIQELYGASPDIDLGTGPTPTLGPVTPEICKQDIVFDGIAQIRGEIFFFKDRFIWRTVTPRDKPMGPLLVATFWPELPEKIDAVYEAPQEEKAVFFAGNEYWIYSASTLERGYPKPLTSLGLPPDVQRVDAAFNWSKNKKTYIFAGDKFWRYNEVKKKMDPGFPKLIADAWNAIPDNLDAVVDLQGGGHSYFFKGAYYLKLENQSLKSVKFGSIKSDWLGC

B1: recombinant human tissue inhibitor of metalloproteinases 3 (natural protein)
chain: CTCSPSHPQDAFCNSDIVIRAKVVGKKLVKEGPFGTLVYTIKQMKMYRGFTKMPHVQYIHTEASESLCGLKLEVNKYQYLLTGRVYDGKMYTGLCNFVERWDQLTLSQRKGLNYRYHLGCNCKIKSCYYLPCFVTSKNECLWTDMLSNFGYPGYQSKHYACIRQKGGYCSWYRGWAPPDKSIINATDP
- MMP2 enzyme activity left (fluorogenic peptide MCA-Pro-Leu-Ala-Nva-Dpa-Ala-Arg-NH2, endpoint after 5 h) with 100 ng/mL rhMMP2 and 40 ng/mL rhTIMP3, molecular ratio about 1:1, without GAG: 15%
- TIMP3-induced inhibition of MMP2 enzyme activity when hyaluronan (HA, 200 µg/mL) is added to MMP2 and TIMP3 pre-incubated for 30 min at 25 °C; change against the control without GAG: 5%
